Experimental data taken from the supplement of paper PMC11502859.
Values joined by “and” are separate entries in the source; they are usually repeats but may differ in a detail not shown here. Identical values can stand only once.

System: HEK293T
Experiment: median enrichment of reporter reads in eGFP-reduced (low/intermediate) vs eGFP-high sorted cells (eGFP-extension fusion abundance) (ratio); higher = stronger loss of eGFP-fusion protein abundance (more destabilising extension)
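Also: lentiviral eGFP-IRES-mCherry reporter pool sorted by FACS 96 h post-transduction, gated on mCherry-high cells, Illumina read counts normalized per million, median across four biological replicates.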

EIF2AK2, sequence (chain, as listed by the source): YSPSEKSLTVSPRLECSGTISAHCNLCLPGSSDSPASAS

| Substance | median enrichment |
| --- | --- |
| WGSVQGLSH [CST5] | 0.711 |
| WWWWWWWWW [Trp09] | 3.84 |
| YQGPLDL [OR56A3] | 0.714 |
| RDCACI [CPSF3] | 0.439 |
| SETAGFLLLFFLVVQLSPPPLLSCLLIWSFSLFSACHVFSGTYLHPPQHQFP [CNTNAP5] | 11.4 |
| GANASRAAVNLCKD [BDKRB2] | 0.298 |
| CQLLHILGPCLFSQDRLLKAEEPVLGAPSQTPKTCFHVPRSLLTSPNKGP [PSENEN] | 26.4 |
| WPVPGALLRPTTASWVGRTGSGGKSQRDQDGGCGAAFPVASIARRVFVCLSVFLTSFFYIFISRQS [NR6A1] | 9.66 |
| SNQFLGLTAM [BTN2A1] | 0.367 |
| CRVAFFLL [GTF2A1] | 11 |
| CITKCLYCLK [EFCAB1] | 7.35 |
| YGRFY [OR5L1] | 1.25 |
| SLYKKVGTMAAG [Degron KLHDC3] | 7.34 |
| ELQEAN [GZMB] | 0.208 |
| SVPLSHPYL [KLK2] | 0.37 |
| QSYHSGC [USP32] | 0.623 |
| CGEPLAWPTNLGFTIQTADWMKLCTFLSLQLPYVESVIFICTFFAT [TAF7L] | 10.8 |
| EIF2AK2 | 2.12 |
| YDFQKTLILFLKL [PRDM1] | 8.51 |
| CGWPRAVRTMKPGQRPGASPAALPTRHPPASPLGAGAHPQHPHLLINISTPGCST [COPE] | 5.98 |
| YNIVYVFCHL [KIAA1586] | 8.8 |
| SKWADE [PLPP5] | 0.25 |
| LATWRNCLCTGCGPTLSS [MED12] | 15.1 |

| Substance | median enrichment |
| --- | --- |
| RSAAIRWKPLEPEAAA [FXYD6] | 12 |
| YAPRR [OTUD6A] | 0.578 |
| KVKP [TRPC5] | 0.338 |
| RVAYFMQS [PDE5A] | 7.9 |
| LMLPGIK [CDV3] | 4.97 |
| WQPPASHTVLQLTAHVHAVRADSSSTQQTRTYGLWMDADDGTVQ [CALN1] | 8.36 |
| GGGGGGGGG [Gly09] | 3.85 |
| QSTGRKCFWTEVVAVEGVASSCRQTIILEILVEVPSPIRHSNMSTNALKWN [EPHA3] | 14.9 |
| YGRDWHRLAFQHLLSPTLHSLLPCLSNKPNAACEAFFIFLFTLFLMLPTLPFRFFC [RSU1] | 10.2 |
| SVS [PACSIN3] | 0.33 |
| CMNEWVCWVGEGPGEGSGTEGMPGSLLPTASTDQQGLGQGGHPGGRGRLPPCLPAGGPRRRAGRVHVCGCPGDPGCLPCLPRP [TMEM91] | 4.17 |
| SCVGHPTRHPSSLRRPVGRQGSRGFALLLSSRVMTLLSISSHYSPCLALRAALLSSQAAPVPSPSTLEWSSSACFPSHRPATT [RAB15] | 5.5 |
| SRY [IL32] | 0.749 |
| ESHMRRTACSDQRAQRPEDKSGGDSMGMGVGCLRERTHGLGRGERCMGITFARAAYLKVTVSSGTAGDRYLLLQEINYPENST [LEXM] | 5.93 |
| CCCCCCC [Cys07] | 9.39 |
| YEYA [BOD1L2] | 0.662 |
| TTTT [Thr04] | 0.324 |
| LIHSQGKLGNSEEKSLPSFWMNCMSSGLSTTM [RNF32] | 10 |
| WGWKGPEG [SLC35B2] | 1.98 |
| SQGGTTQAPWAPRERGGIRAGQPPGCRCQEQSQAQVAPAACPVPFPKAPLHIEGRKREFRQLHSPFTPNPVFYSPEKRRESHE [STARD8] | 1.09 |
| SNGSI [PHF20L1] | 0.369 |
| LRRGGKREKMERGAGNGGERTSKETEMKT [ZSWIM9] | 1.53 |
| QEWKSGSSRYSFMLCSCEQSTKFE [LMLN] | 7.78 |

| Substance | median enrichment |
| --- | --- |
| SSSSSSSS [Ser08] | 0.512 |
| GGGGGGGGGG [Gly10] | 11.7 |
| GGLLPLGPLTLSGWWTTKYNPVYNLKIYFTFVLLYLFIKG [SMAD4] | 5.18 |
| YNSEVNVLKYNY [TEFM] | 0.662 |
| CCCCCCCCC [Cys09] | 7.96 |
| LFSTEIQNISLTALRCVC [NIPSNAP3B] | 6.41 |
| YVPTK [ZNF334] | 0.591 |
| RLNICSVLKLMCFVGV [FBXL4] | 10.3 |
| QALGKKDCNQRKSIGVEEIKLTLFWLFF [GLI3] | 25.8 |
| WVLIPTFPCDLGCRCSCCKMEANLTGVL [ADD2] | 6.13 |
| SGFLKLSSKLLRLFK [FABP12] | 7.41 |
| YPVGGWRVCHSNLIESRKTEGNAAAN [OR52E8] | 4 |
| KEHLWFT [NPAP1] | 1.2 |
| QVISQSIYVLSNM [PSMA1] | 7.19 |
| SGTVGCVGVGIPLAPASPTLALQLGPRGISVLLSQGRSPAGDGGRGSSILPRVCLGVCEQVCKTPEAEAILPPRSLEGVCAWA [ZSWIM4] | 5.27 |
| YPNIIQGTEIKELRFKHKCLAQTYL [EEF1E1] | 7.38 |
| RHSPLLVPH [TP53] | 0.971 |
| YPYGE [PRKCH] | 0.563 |
| LKILVLLNYLI [TIPARP] | 10.8 |
| LRLSISRDMVLTQQFPVMAKCSI [IL13RA2] | 41.5 |
| WGSEPRPSGFTCLVKAFVMISLN [KRTAP5-10] | 10.1 |
| CRVSLWPLSGIPGGRGGEGGTHIVNS [BDH1] | 6.12 |
| CIFFYQEG [PTEN] | 6.73 and 8.49 |

| Substance | median enrichment |
| --- | --- |
| LLRPHVKPPCPSTLPIALQRSSSWMTQI [RESP18] | 7.12 |
| LFLNALPHIFRKSRELLP [OR5AU1] | 9.77 |
| YGSAKSLWDWKSGPGLPDRQPEDLPSTMHHGRGRSMKN [SLC39A14] | 0.591 |
| SVAGGVTARSPDFTSFGPVLL [UTP14A] | 0.633 |
| DDDDDDDD [Asp08] | 0.299 |
| SNIRFVIRNTLCLLWSCARWPQMDYRRLQRTRQMEH [BCL2L14] | 16.6 |
| YTKYLKMGIILI [ST8SIA6] | 10.3 |
| QWPHPHWAQARRGPAHAHTTGQGCGAGAIPAPFPGPRGLGSLPSHPGLVPPGAPTVEIRRGWNGGRGGAGGPHPSAALGLGPH [GNB2] | 7.88 |
| RAWLPACTPPLPPHESPPAGYRGRHAPGASPALGTTCLPAPPGPGPPAAPHFRRGLEQGEAGLWGAVREIYWGPQILL [ECEL1] | 4.03 |
| RMLEAFIHL [ZNF248] | 1.59 |
| SGTWCATGCKLQGIFIGCSCIVLHSSAIYF [PSEN2] | 7.44 |
| PLAPALPTSSAWSEGAARAQQRRGGRLWPPTSRPVPAGTASPSAGRGSAPRKCLLCPGAERRCLLGAGLPPCGSCAPWPGPCP [ARHGAP39] | 1.98 |
| YYHMFSWYVN [ABHD10] | 17.6 |
| RIFCLVASQLGVL [GXYLT2] | 6.32 |
| WGSCSGGRV [ZNF330] | 0.598 |
| YISTLFLKLTFQCH [GPNMB] | 7.14 |
| NLYSLESMSCVYSTIRNLILFLLLFLQKQKLILKSIIMGWGGGCPQDMQDFCRGQHRFWDCEAVSEGGQAVWMAGLMLFRIKC [SETD4] | 13.5 |
| TTTTTTT [Thr07] | 0.319 |
| LRMKQLLSGPALPHSCASSALLSSQT [LCN12] | 30.4 |
| GGGGQVTRSGLSFWGCRSTEPLTPVCPRSPNRCGSSSERLSVQAMGQDRKVPELGKPGCNFLLHPAPPEVLRRVFLGIVFCSC [JUP] | 5.66 |
| LVSLPLVSAWQPPPPTYHPSPITQVNVTNLPCLHINLYIFGCSPYLMAVIIYRYVYPCYLVVSFSRGGTVFYSSLCPLFLSSV [PGLYRP4] | 2.37 |
